Patent US9260500B2, “Peptide and use thereof” (Takeda Pharmaceutical Company Limited, priority 2009, dated 2016)
Non-standard residues stand in square brackets, D forms with d. *: point of attachment. X8 = (2-Hydroxy-1-(hydroxymethyl)ethyl)carbamoyl, O=C(NC(CO)CO)*; X5 = tetrahydro‑2H‑pyran‑4‑yl‑carbamoyl, O=C(NC1CCOCC1)*; ((1S)-1-Carboxyethyl)carbamoyl = C[C@H](NC(=O)*)C(=O)O; (3-Carboxypropyl)carbamoyl = O=C(O)CCCNC(=O)*; (3-carboxypropyl)carbamoyl = O=C(O)CCCNC(=O)*; Imidazole4carbonyl = O=C(c1cnc[nH]1)*; Arg(Me) = CNC(=N)NCCC[C@H](N)C(=O)O; tBuAla = CC(C)(C)C[C@H](N)C(=O)O; αMeF = C[C@](N)(Cc1ccccc1)C(=O)O; 4Pal = N[C@@H](Cc1ccncc1)C(=O)O; dHyp = O=C(O)[C@H]1C[C@H](O)CN1; Cha = N[C@@H](CC1CCCCC1)C(=O)O; Isonicotinoyl = O=C(c1ccncc1)*; Iva = CC[C@](C)(N)C(=O)O; Aib = CC(C)(N)C(=O)O; Glycolyl = O=C(CO)*

Assays:
[1] = molecular target: T1, human Y2 receptor (Homo sapiens, UniProt P49146); test: Receptor Binding Assay (RBA) for Human Y2, [125I]-PYY displacement on hY2R/CHO membrane fraction; settings: IC50 of test compound/IC50 of PYY(3-36) (PYY(3-36) taken as 1)
T1 construct: expressed in transfected cells; membrane fraction
T1 sequence (P49146 1-381): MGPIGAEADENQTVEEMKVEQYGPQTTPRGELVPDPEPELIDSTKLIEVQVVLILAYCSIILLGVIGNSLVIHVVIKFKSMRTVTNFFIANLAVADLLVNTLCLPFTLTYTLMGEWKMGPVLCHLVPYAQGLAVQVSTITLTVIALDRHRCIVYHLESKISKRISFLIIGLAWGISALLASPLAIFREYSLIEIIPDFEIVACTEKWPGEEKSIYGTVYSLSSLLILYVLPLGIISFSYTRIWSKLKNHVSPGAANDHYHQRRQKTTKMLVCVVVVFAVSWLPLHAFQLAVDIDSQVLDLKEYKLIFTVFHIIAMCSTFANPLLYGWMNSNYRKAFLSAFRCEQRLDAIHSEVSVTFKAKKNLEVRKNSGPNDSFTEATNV
Outline: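 Read-out is [125I]-PYY displacement from membranes of CHO/dhfr− cells stably transfected with human Y2R. Membranes were obtained by disrupting cells in a buffer of 10 mM NaHCO3, 5 mM EDTA and protease inhibitors.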

[2] = molecular target: T1, human Y2 receptor; test: Human Y2 Receptor G Protein Binding Assay (GBA), [35S]GTPγS; format: biochemical; settings: EC50 of test compound/EC50 of PYY(3-36) (PYY3-36 taken as 1), hY2R/CHO membrane fraction
Outline: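 Agonism measured as [35S]GTPγS binding, read by GF/C filtration and scintillation counting after 120 min at room temperature, using human Y2 membranes at 1 μg protein/mL in pH 7.4 Tris/MgCl2/NaCl/GDP buffer. Compound serially diluted 100 μM–1 nM; EC50 normalized to PYY(3-36) (ratio = compound/PYY).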

[3] = test system: male C57EL/6J mice; test: 3-Days Continuous Subcutaneous Administration Test-1 (food intake suppressing activity); format: in vivo, mouse; settings: 0.03 mg/kg/day, subcutaneous Alzet pump, food consumption over 3 days; relative to food intake suppression rate for PYY(3-36) (1 mg/kg/day) taken as 100%
Description: (4) Test Method: 3-Days Continuous Subcutaneous Administration Test-1
The food intake suppressing activity of the compound of the present invention was examined by the method described below.
The test compound was dissolved in 50% DMSO so that sustained release would occur at 0.03 mg/kg/day, and the solution was filled in the Alzet Pump (Alzet model: 1003D, sustained release rate: 1 μL/hr, capacity: 100 μL). After the filling, the pump was placed in a 2 mL Eppendorf tube containing 330 μL of physiological saline, and incubated at 37° C. for 2 hours or more. Thereafter, this pump was subcutaneously embedded in the back of each mouse by the method described below. After weighing, each male […] mice at 12-13 weeks of age (25° C., allowed to take food and water ad libitum; 12-hour bright-12-hour dark cycle, lighting turned on at 08:00) was anesthetized with diethyl ether; the skin in the upper back thereof was incised, and the above-mentioned pump was embedded subcutaneously. Thereafter, several drops of penicillin solution (100000 units/mL) were added to the incised part, and the incision was sutured using Michel's surgical needle. This mouse was returned to the rearing cage (reared alone), and given previously weighed food; 3 days later, the amount of remaining food was measured. Food consumption was calculated by subtracting the amount of remaining food after 3 days from the weight of the food given on the day of pump embedding. The food intake suppressing activity of each test compound was expressed as a food intake suppression rate (%) relative to the food intake suppression rate for PYY(3-36) (1 mg/kg/day) taken as 100%.

Substance	RBA IC50 Ratio [1]	GBA EC50 Ratio [2]	food intake suppression rate (%) [3] [%]
(3-carboxypropyl)carbamoyl-[D-Pro24, Pya(4)26, Cha27,36, Aib28,31, Lys30]-PYY(23-36) ({(3-carboxypropyl)carbamoyl}-S[dP]R[4Pal][Cha][Aib]NK[Aib]TRQR[Cha]-NH2; SMILES C[C@@H](O)[C@H](NC(=O)C(C)(C)NC(=O)[C@H](CCCCN)NC(=O)[C@H](CC(N)=O)NC(=O)C(C)(C)NC(=O)[C@H](CC1CCCCC1)NC(=O)[C@H](Cc1ccncc1)NC(=O)[C@H](CCCNC(=N)N)NC(=O)[C@H]1CCCN1C(=O)[C@H](CO)NC(=O)NCCCC(=O)O)C(=O)N[C@@H](CCCNC(=N)N)C(=O)N[C@@H](CCC(N)=O)C(=O)N[C@@H](CCCNC(=N)N)C(=O)N[C@@H](CC1CCCCC1)C(N)=O) [compound No. 293]	1.2	0.97	51
Ac-[D-Pro24, Arg(Me)25, Pya(4)26, Cha27,36, Aib28,31, Lys30]-PYY(23-36) [compound No. 319]	1.1	1.3	40
[(1S)-1-Carboxyethyl]carbamoyl-[D-Pro24, Pya(4)26, Cha27,36, Aib28,31, Lys30]-PYY(23-36) ({((1S)-1-Carboxyethyl)carbamoyl}-S[dP]R[4Pal][Cha][Aib]NK[Aib]TRQR[Cha]-NH2; SMILES C[C@H](NC(=O)N[C@@H](CO)C(=O)N1CCC[C@@H]1C(=O)N[C@@H](CCCNC(=N)N)C(=O)N[C@@H](Cc1ccncc1)C(=O)N[C@@H](CC1CCCCC1)C(=O)NC(C)(C)C(=O)N[C@@H](CC(N)=O)C(=O)N[C@@H](CCCCN)C(=O)NC(C)(C)C(=O)N[C@H](C(=O)N[C@@H](CCCNC(=N)N)C(=O)N[C@@H](CCC(N)=O)C(=O)N[C@@H](CCCNC(=N)N)C(=O)N[C@@H](CC1CCCCC1)C(N)=O)[C@@H](C)O)C(=O)O) [compound No. 286]	0.78	0.94	37
Ac-[D-Pro24, Pya(4)26, Cha27,36, Aib28,31, Arg(Me)30]-PYY(23-36) (Ac-S[dP]R[4Pal][Cha][Aib]N[Arg(Me)][Aib]TRQR[Cha]-NH2) [compound No. 314]	1.1	1.2	21
4-Imidazolecarbonyl-[D-Hyp24, Iva25, Pya(4)26, Cha27,36, αMePhe28, Lys30, Aib31]-PYY(23-36) (Imidazole4carbonyl-S[dHyp][Iva][4Pal][Cha][αMeF]NK[Aib]TRQR[Cha]-NH2; SMILES CC[C@](C)(NC(=O)[C@H]1C[C@H](O)CN1C(=O)[C@H](CO)NC(=O)c1cnc[nH]1)C(=O)N[C@@H](Cc1ccncc1)C(=O)N[C@@H](CC1CCCCC1)C(=O)N[C@@](C)(Cc1ccccc1)C(=O)N[C@@H](CC(N)=O)C(=O)N[C@@H](CCCCN)C(=O)NC(C)(C)C(=O)N[C@H](C(=O)N[C@@H](CCCNC(=N)N)C(=O)N[C@@H](CCC(N)=O)C(=O)N[C@@H](CCCNC(=N)N)C(=O)N[C@@H](CC1CCCCC1)C(N)=O)[C@@H](C)O) [compound No. 343]	0.65	1.0	15
(3-Carboxypropyl)carbamoyl-[D-Hyp24, Iva25, Pya(4)26, Cha27,36, Leu(Me)28, Lys30, Aib31]-PYY(23-36) ({(3-Carboxypropyl)carbamoyl}-S[dHyp][Iva][4Pal][Cha][tBuAla]NK[Aib]TRQR[Cha]-NH2; ends and bridges not checked) [compound No. 349]	0.57	1.7	52
4-Imidazolecarbonyl-[Aib24,28,31, Iva25, Pya(4)26, Cha27,36, Lys30]-PYY(23-36) [compound No. 344]	1.9	1.7	22
[2-Hydroxy-1-(hydroxymethyl)ethyl]carbamoyl-[D-Pro24, Iva25, Pya(4)26, Cha27,36, Aib28,31, Lys30]-PYY(23-36) (X8-S[dP][Iva][4Pal][Cha][Aib]NK[Aib]TRQR[Cha]-NH2; SMILES CC[C@](C)(NC(=O)[C@H]1CCCN1C(=O)[C@H](CO)NC(=O)NC(CO)CO)C(=O)N[C@@H](Cc1ccncc1)C(=O)N[C@@H](CC1CCCCC1)C(=O)NC(C)(C)C(=O)N[C@@H](CC(N)=O)C(=O)N[C@@H](CCCCN)C(=O)NC(C)(C)C(=O)N[C@H](C(=O)N[C@@H](CCCNC(=N)N)C(=O)N[C@@H](CCC(N)=O)C(=O)N[C@@H](CCCNC(=N)N)C(=O)N[C@@H](CC1CCCCC1)C(N)=O)[C@@H](C)O) [compound No. 339]	1.76	2.0	51
Glycoloyl-[D-Hyp24, Iva25,28, Pya(4)26, Cha27,36, Leu(Me)28, Lys30, Aib31]-PYY(23-36) (Glycolyl-S[dHyp][Iva][4Pal][Cha][Iva]NK[Aib]TRQR[Cha]-NH2) [compound No. 338]	1.9	2.1	27
4-Pyridinecarbonyl-[D-Hyp24, Iva25, Pya(4)26, Cha27,36, Leu(Me)28, Lys30, Aib31]-PYY(23-36) (Isonicotinoyl-S[dHyp][Iva][4Pal][Cha][tBuAla]NK[Aib]TRQR[Cha]-NH2; SMILES CC[C@](C)(NC(=O)[C@H]1C[C@H](O)CN1C(=O)[C@H](CO)NC(=O)c1ccncc1)C(=O)N[C@@H](Cc1ccncc1)C(=O)N[C@@H](CC1CCCCC1)C(=O)N[C@@H](CC(C)(C)C)C(=O)N[C@@H](CC(N)=O)C(=O)N[C@@H](CCCCN)C(=O)NC(C)(C)C(=O)N[C@H](C(=O)N[C@@H](CCCNC(=N)N)C(=O)N[C@@H](CCC(N)=O)C(=O)N[C@@H](CCCNC(=N)N)C(=O)N[C@@H](CC1CCCCC1)C(N)=O)[C@@H](C)O) [compound No. 333]	0.93	1.6	28
Tetrahydro-2H-pyran-4-yl-carbamoyl-[Glu23, D-Pro24, Pya(4)26, Cha27,36, Aib28,31, Lys30]-PYY(23-36) (X5-E[dP]R[4Pal][Cha][Aib]NK[Aib]TRQR[Cha]-NH2; ends and bridges not checked) [compound No. 282]	1.1	1.6	30
4-Imidazolecarbonyl-[D-Hyp24, Iva25, Pya(4)26, Cha27,36, Aib28,31, Lys30]-PYY(23-36) (Imidazole4carbonyl-S[dHyp][Iva][4Pal][Cha][Aib]NK[Aib]TRQR[Cha]-NH2; SMILES CC[C@](C)(NC(=O)[C@H]1C[C@H](O)CN1C(=O)[C@H](CO)NC(=O)c1cnc[nH]1)C(=O)N[C@@H](Cc1ccncc1)C(=O)N[C@@H](CC1CCCCC1)C(=O)NC(C)(C)C(=O)N[C@@H](CC(N)=O)C(=O)N[C@@H](CCCCN)C(=O)NC(C)(C)C(=O)N[C@H](C(=O)N[C@@H](CCCNC(=N)N)C(=O)N[C@@H](CCC(N)=O)C(=O)N[C@@H](CCCNC(=N)N)C(=O)N[C@@H](CC1CCCCC1)C(N)=O)[C@@H](C)O) [compound No. 299]	1.3	0.92	46
